IC50 data for one substance are collected here from US20040058416A1.

pIC50: −log10 of the molar value.

This experiment has as its target trkB-IgG immunoadhesin (human trkB extracellular domain fused to human IgG-1 Fc) (human). Briefly: competitive displacement of iodinated BDNF from trkB-IgG by unlabelled NT4/5.

Sequence of trkB-IgG immunoadhesin (human trkB extracellular domain fused to human IgG-1 Fc) (human) (Q16620 32-423): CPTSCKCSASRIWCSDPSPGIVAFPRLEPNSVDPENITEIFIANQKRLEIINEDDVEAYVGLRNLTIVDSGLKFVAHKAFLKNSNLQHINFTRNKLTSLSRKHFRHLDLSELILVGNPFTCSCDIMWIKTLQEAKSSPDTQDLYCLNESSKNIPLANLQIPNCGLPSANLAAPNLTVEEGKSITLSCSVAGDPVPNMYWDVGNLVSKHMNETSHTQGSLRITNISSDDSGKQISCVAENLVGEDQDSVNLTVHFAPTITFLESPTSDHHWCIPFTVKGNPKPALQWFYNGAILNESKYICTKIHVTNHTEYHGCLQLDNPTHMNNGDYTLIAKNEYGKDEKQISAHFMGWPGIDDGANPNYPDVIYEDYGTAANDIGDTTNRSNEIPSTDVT

For “neurotrophin-4/5 (NT-4/5) (from UniProt P34130 81-210) (ligand)”, the pIC50 (usually the IC50 on a negative log10 scale, so that one unit is a factor of ten) was 9.70.
